This series deals with T1, Rv0023 (XRE family transcription regulator) (Mycobacterium tuberculosis, UniProt P9WMI3 1-256).
T1 sequence: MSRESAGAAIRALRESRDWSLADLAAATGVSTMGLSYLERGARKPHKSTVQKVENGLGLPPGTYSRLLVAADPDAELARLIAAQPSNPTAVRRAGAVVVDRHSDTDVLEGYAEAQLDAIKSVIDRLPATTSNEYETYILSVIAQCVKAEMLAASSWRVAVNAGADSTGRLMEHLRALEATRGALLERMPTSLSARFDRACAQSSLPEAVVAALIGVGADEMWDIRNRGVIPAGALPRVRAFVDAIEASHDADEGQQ
Nature of the series: EMSA; 8 pmol protein. Particulars: protein: recombinant; tags: His (implied by Ni-NTA purification; pET23a, also printed pET21b); chain copies: 2; label: 32P; blunt. For orientation: In EMSA bound probe runs differently from free probe, usually more slowly.

B1: OL1M (dsDNA)
DNA 1: CACCCCTTATGTAGAGACGTGTGTATCGCGATTCTCTTGC
DNA 2: GCAAGAGAATCGCGATACACACGTCTCTACATAAGGGGTG
Turning to B1, the binding result is recorded as “no binding”.

B2: OL3M (dsDNA)
DNA 1: AGAGCCCGCCACAGACAGAGACGCGTGTGCCTATGTTTCG
DNA 2: CGAAACATAGGCACACGCGTCTCTGTCTGTGGCGGGCTCT
For B2, the binding result was “no binding”.

For the origin of these results see PMC7020754.
